Measured values as given in PMC9116609 (Science Advances, 2022).
Each block holds one molecule with its values, some of them ahead of it.

B2: dehydrodolichyl diphosphate synthase (DHDDS), residues 1 to 333 (enzyme)
chain: MSWIKEGELSLWERFCANIIKAGPMPKHIAFIMDGNRRYAKKCQVERQEGHSQGFNKLAETLRWCLNLGILEVTVYAFSIENFKRSKSEVDGLMDLARQKFSRLMEEKEKLQKHGVCIRVLGDLHLLPLDLQELIAQAVQATKNYNKCFLNVCFAYTSRHEISNAVREMAWGVEQGLLDPSDISESLLDKCLYTNRSPHPDILIRTSGEVRLSDFLLWQTSHSCLVFQPVLWPEYTFWNLFEAILQFQMNHSVLQKARDMYAEERKRQQLERDQATVTEQLLREGLQASGDAQLRRTRLHKLSARREERVQGFLQALELKRADWLARLGTASA

What was measured:
[1] = target: T1, shcis-PT (soluble human cis-prenyltransferase complex, DHDDS-NgBR) (Homo sapiens, UniProt Q86SQ9); assay: displacement of MANT-O-GPP followed by FRET; type: binding; conditions: competition with 10 μM MANT-O-GPP; pH 7.5, 0.5 mM MgCl2, 1 μM enzyme; S1 site
T1 sequence (Q86SQ9 1-333): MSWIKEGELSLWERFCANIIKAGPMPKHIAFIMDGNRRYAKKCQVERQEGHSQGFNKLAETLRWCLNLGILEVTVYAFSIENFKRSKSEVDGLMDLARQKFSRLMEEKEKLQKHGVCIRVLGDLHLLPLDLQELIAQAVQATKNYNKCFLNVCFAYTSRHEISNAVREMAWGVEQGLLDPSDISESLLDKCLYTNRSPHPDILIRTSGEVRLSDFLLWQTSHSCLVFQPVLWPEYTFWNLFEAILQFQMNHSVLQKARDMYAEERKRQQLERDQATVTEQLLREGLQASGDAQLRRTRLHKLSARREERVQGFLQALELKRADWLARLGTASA
T1 sequence (Q96E22 73-293 partner): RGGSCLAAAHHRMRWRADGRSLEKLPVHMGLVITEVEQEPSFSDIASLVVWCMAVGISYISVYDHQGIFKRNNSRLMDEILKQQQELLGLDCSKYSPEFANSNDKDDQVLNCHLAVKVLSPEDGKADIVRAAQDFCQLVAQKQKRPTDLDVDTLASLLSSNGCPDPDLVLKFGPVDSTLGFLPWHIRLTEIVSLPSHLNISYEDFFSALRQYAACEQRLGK

[2] = target: B2; assay: crystal structure
crystal structure = target: the molecule itself; assay: crystal structure

IC50 [1]: 10.5 ± 3 µM
Molecule: CC(C)=CCC/C(C)=C/CC/C(C)=C/CO[P@@](=O)(O)OP(=O)(O)O [FPP]

binding result [2]: binds
B1: Nogo B-receptor (NgBR), pseudo cis-prenyltransferase domain, residues 73 to 293 lacking residues 167 to 175 (domain or fragment)
chain: RGGSCLAAAHHRMRWRADGRSLEKLPVHMGLVITEVEQEPSFSDIASLVVWCMAVGISYISVYDHQGIFKRNNSRLMDEILKQQQELLGLDCSKDKDDQVLNCHLAVKVLSPEDGKADIVRAAQDFCQLVAQKQKRPTDLDVDTLASLLSSNGCPDPDLVLKFGPVDSTLGFLPWHIRLTEIVSLPSHLNISYEDFFSALRQYAACEQRLGK

Molecule: B2
binding result (crystal structure): binds
